The record followed here is the RNAGym collection of RNA variant scans (doi:10.7554/elife.80360).

B1: CPEB3 Ribozyme (parent)
chain: GGGGGCCACAGCAGAAGCGUUCACGUCGCGGCCCCUGUCAGAUUCUGGUGAAUCUGCGAAUUCUGCUGU

Variants of B1 are the subject of the data set. Put plainly: self-cleavage, relative activity (ratio to wild type); higher = more cleavage; co-transcriptional.
Regarding G5A G25U, the self-cleavage is 0.0968.
Then G5A G25A, with 0.114.
G4U U62G: the self-cleavage was found to be 0.349.
As to G4U U62C, the self-cleavage came out at 0.369.
The result for G5U C7A reads 0.086.
The result for G5U C7G reads 0.0615.
The result for G5U C7U reads 0.0819; that for G5A A51U, 0.859; that for G5A A51G, 0.849.
Consider G5A A51C, for which the self-cleavage turned out to be 0.82.
Turning to G5C C45U, the self-cleavage stood at 0.266.
The result for G5C C45G reads 0.178; that for G5C A40G, 0.171.
The result for G5C A40C reads 0.213; that for G5C U62A, 0.169.
Consider G5A U67C, for which the self-cleavage was 0.963.
The result for G5A U67G reads 0.957; that for G5A G58U, 0.906.
The result for G5A G58C reads 0.758; that for G5A G58A, 0.723; that for G5C C34G, 0.22.
For the variant G5C C34A, the self-cleavage came out at 0.268.
Then G5C C34U, with 0.3; and G5C G14U, with 0.109; and G5C G58U, with 0.207.
As for G5A U20G, the self-cleavage was determined as 0.111.
For G5A U20C, the self-cleavage is 0.109.
The result for G5A G11C reads 0.578; that for G5A G11U, 0.778; that for G5A C18G, 0.0833.
Then G5A C18U, with 0.483.
Then G5C C54G, with 0.143; and G5C C54U, with 0.219; and G5U C18G, with 0.0898.
With G5U C18A, the self-cleavage amounted to 0.0315.
The result for G4U U49G reads 0.357; that for G5A G56A, 0.759; that for G5A G56U, 0.772.
The result for G5A G56C reads 0.407; that for G5A G37U, 0.165; that for G5A G37C, 0.171.
The result for G5C U55A reads 0.192; that for G5C G17A, 0.0588; that for G5C G17C, 0.0976.
Consider G5U C22G, for which the self-cleavage is 0.09.
The result for G5A U55C reads 0.403; that for G5A U55A, 0.69; that for G5A C27A, 0.141.
In the case of G5A C27U, the self-cleavage was 0.201.
Regarding G5A C27G, the self-cleavage came out at 0.104.
Turning to G5A C29A, the self-cleavage turned out to be 0.229.
Then G5A C29U, with 0.303; and G5U C29G, with 0.0724; and G5U C29A, with 0.0808.
As to G5A U44G, the self-cleavage amounted to 0.631.
The result for G5A U44A reads 0.655; that for G5A U44C, 0.858.
Then G5U A40C, with 0.088.
The result for G4U U36A reads 0.122; that for G4U U36C, 0.651; that for G4U U36G, 0.492.
Take G5A C22U: the self-cleavage is 0.129.
Regarding G5A C22G, the self-cleavage came out at 0.0902.
Then G5C G50A, with 0.202; and G5C G50C, with 0.182.
As for G5U A51U, the self-cleavage is 0.236.
The result for G5U A51G reads 0.198; that for G5U A51C, 0.187.
Turning to G5A U53G, the self-cleavage worked out at 0.335.
In the case of G5U C6U, the self-cleavage was 0.111.
The result for G5U A60U reads 0.149; that for G5U A60C, 0.0763.
Turning to G5U A60G, the self-cleavage amounted to 0.0935.
For G5C G28U, the self-cleavage was found to be 0.0856.
The result for G5C G28C reads 0.0894; that for G5C A59G, 0.229.
For G5C C6G, the self-cleavage was found to be 0.0983.
The result for G5U A59U reads 0.125; that for G5C U36G, 0.458.
The result for G5C U36A reads 0.0886; that for G5C U36C, 0.244; that for G5U C34A, 0.0978.
G5A U61G: the self-cleavage was 0.468.
Consider G5A U61C, for which the self-cleavage is 0.299.
Then G5A U61A, with 0.351; and G5A C32A, with 0.847.
The result for G5A A23U reads 0.931; that for G5C C35A, 0.0866; that for G5A G14A, 0.325.
The result for G5A G14C reads 0.159; that for G5A G14U, 0.365; that for G5C G37A, 0.119.
On to G5C G37C, for which the self-cleavage is 0.103.
Then G5C G37U, with 0.179; and G5A U36A, with 0.146; and G5A G19A, with 0.12.
For the variant G5A G19C, the self-cleavage was determined as 0.0992.
Consider G5C U44C, for which the self-cleavage was 0.179.
With G5U A23G, the self-cleavage turned out to be 0.253.
Then G5U A23C, with 0.211.
As to G5U A23U, the self-cleavage is 0.402.
Then G5C G47U, with 0.289; and G5C G47C, with 0.246.
As to G5C G47A, the self-cleavage was 0.201.
With G5C U61C, the self-cleavage was 0.13.
The result for G5C U61G reads 0.153; that for G5C U61A, 0.193.
Then G5A A13C, with 0.637; and G5A G17U, with 0.152.
Consider G5C G11U, for which the self-cleavage came out at 0.108.
G5U C9U: the self-cleavage worked out at 0.877.
Then G5U C9A, with 0.716; and G5A C45G, with 0.823; and G5A C45A, with 0.832.
Turning to G5A C45U, the self-cleavage was found to be 0.913.
Then G5A U49A, with 0.926; and G5A G28U, with 0.144.
Regarding G5A G28C, the self-cleavage came out at 0.124.
Then G5A G28A, with 0.1; and G5C C12A, with 0.141; and G5C C24U, with 0.112.
Then G5C C24G, with 0.0631.
As for G5A G65A, the self-cleavage worked out at 0.812.
The result for G5A G65C reads 0.532.
As for G5A A59G, the self-cleavage was found to be 0.753.
The result for G5A A59C reads 0.259; that for G5U C12U, 0.188.
Then G5A G50A, with 0.941; and G5A G50C, with 0.902; and G5A A60U, with 0.247.
For G5A A60G, the self-cleavage is 0.515.
The result for G5A A60C reads 0.251.
For the variant G5A C63A, the self-cleavage turned out to be 0.427.
The result for G5A C63U reads 0.915; that for G5C A8G, 0.242; that for G5C A8C, 0.199.
Regarding G5C A8U, the self-cleavage turned out to be 0.156.
The result for G5C U20G reads 0.0813.
On to G5C A42C, for which the self-cleavage was 0.207.
The result for G5C A42U reads 0.265.
Consider G5A A52C, for which the self-cleavage amounted to 0.837.
In the case of G5A A52G, the self-cleavage was found to be 0.92.
Consider G5A A52U, for which the self-cleavage came to 0.891.
The result for G5C G31U reads 0.143; that for G5C C27U, 0.138; that for G5A U38C, 0.749.
In the case of G5A U38G, the self-cleavage was 0.129.
As to G5A U38A, the self-cleavage stood at 0.816.
As to G4U U44C, the self-cleavage amounted to 0.552.
The result for G4U U44G reads 0.384; that for G5A C7A, 0.134; that for G5A C7U, 0.501.
Take G5A C7G: the self-cleavage is 0.0847.
Then G5C U67A, with 0.338; and G5C U67C, with 0.254; and G5C U67G, with 0.355.
Then G5A G68A, with 0.976; and G5A G68U, with 0.948.
Turning to G5A G68C, the self-cleavage was 0.947.
In the case of G5C A23G, the self-cleavage is 0.144.
Then G5C A23U, with 0.333.
For the variant G5C A23C, the self-cleavage came to 0.228.
In the case of G5C C32G, the self-cleavage is 0.968.
On to G5A U43A, for which the self-cleavage amounted to 0.721.
As for G5A U43G, the self-cleavage worked out at 0.578.
The result for G5A U43C reads 0.77.
Consider G5A C9A, for which the self-cleavage worked out at 1.01.
